In article PMC4865804 one finds Ki' (inhibitor constant for the [ES] complex), Ki and inhibition of FX activation by the reconstituted extrinsic tenase complex (FXa formed, measured by S-2222 hydrolysis); ringhalexin 100 pM to 3 μM, FX 30 nM data, which are given here for one molecule.

As usually defined, the Ki is a dissociation constant, usually derived from enzyme kinetics or from competition with a known ligand.

Test [1] deals with [ES] complex (FVIIa/TF_(PCPS)/FX) (UniProt P13726). Description: enzyme inhibition kinetics (mixed-type fit, secondary plots); FX activation by FVIIa (10 pM) in complex with recombinant human TF (Innovin); FX 0.58-50 nM; ringhalexin 50-150 nM; 50 mM HEPES pH 7.4, 140 mM NaCl, 5 mM CaCl2, 1% BSA, 37 °C; FXa read by hydrolysis of 500 μM S-2222 at 405 nm.
Test [2] deals with extrinsic tenase complex (FVIIa/TF_(PCPS)), the [E] complex (human) (UniProt P13726). The description is as above.
For test [3] the target is unchanged.

B1: ringhalexin (Ringhals extrinsic tenase complex inhibitor) (natural protein)
chain: RLCLSDYSIFSETIEICPEGHNYCFKKFPKGITRLPWVIRGCAATCPKPEAQVYVDCCARDKCNR
Take B1: in test [1], the Ki' (inhibitor constant for the [ES] complex) was 152 nM. For the same molecule, the inhibitory constant (Ki) in test [2] is 84.2 nM. In test [3], this molecule displayed an inhibition of FX activation by the reconstituted extrinsic tenase complex (FXa formed, measured by S-2222 hydrolysis); ringhalexin 100 pM to 3 μM, FX 30 nM of 124 nM.
